Data reported in publication PMC9938351.

How the values were obtained:
Assay in all cases: ITC
[1] = target: SARS-CoV-2 Ubl1 D110A (SARS-CoV-2)
[2] = target: SARS-CoV-2 Ubl1 E26A (SARS-CoV-2)
[3] = target: SARS-CoV-2 Ubl1 Y103A (SARS-CoV-2)
[4] = target: SARS-CoV-2 Ubl1 E95A (SARS-CoV-2)
[5] = target: SARS-CoV-2 ubiquitin-like domain 1 (Ubl1) of Nsp3 (residues 1–111) (SARS-CoV-2)

| Substance | Kd [1] | dH [1] | stoichiometry N [1] | Kd [2] | dH [2] | stoichiometry N [2] | Kd [3] | dH [3] | stoichiometry N [3] | Kd [4] | dH [4] | stoichiometry N [4] | Kd [5] | dH [5] | stoichiometry N [5] |
| --- | --- | --- | --- | --- | --- | --- | --- | --- | --- | --- | --- | --- | --- | --- | --- |
| SARS-CoV-2 N protein N-terminal domain (NTD, residues 47–174) (from UniProt P0DTC9 47-174) (domain or fragment) | 50.8 µM | -2.65 kcal/mol | 0.64 | 78.6 µM | -3.37 kcal/mol | 0.74 | 57.7 µM | -0.741 kcal/mol | 0.57 | 53.1 µM | -1.24 kcal/mol | 0.75 | 17 µM | -2.7 kcal/mol | 0.73 |
| SARS-CoV-2 N-NTD R92A (from UniProt P0DTC9 47-174) (domain or fragment) | – | – | – | – | – | – | – | – | – | – | – | – | 55.7 µM | -3.18 kcal/mol | 0.58 |
